Consider seven substances from patent publication EP3172325B1.

Assay [1] addresses MART-1 peptide on HLA-A*02:01 (human). In words: SPR, Biacore 3000, TCR amine-coupled to a CM5 chip, refolded pMHC injected, 25 C; the same value stands in Table 2 r6, where the peptide is printed as AAG; soluble, other. In general terms: In SPR one partner is held on a chip, and binding of the other changes the refractive index at the surface.
Assay [2] has the same target. In words: SPR, Biacore 3000, TCR amine-coupled to a CM5 chip, refolded pMHC injected up to 100 micromolar, 1:1 Langmuir model (Fig. 4); weaker than αD26Y/βL98W (0.024) and wild-type DMF5 (9.5); soluble, other.
Assay [3] shares this target. Nature of the assay: SPR, Biacore 3000, TCR amine-coupled to a CM5 chip, refolded pMHC injected up to 100 micromolar, 25 C, 1:1 Langmuir model (Fig. 2); soluble, other.
Assay [4] shares this target. In words: SPR, Biacore 3000, TCR amine-coupled to a CM5 chip, refolded pMHC injected, 25 C, 1:1 Langmuir model; Table 2 draws on Fig. 2 and published work (PMID: 24550723); soluble, other.
The target is the same in assay [5]. Nature of the assay: SPR, Biacore 3000, TCR amine-coupled to a CM5 chip, refolded pMHC injected up to 100 micromolar, 1:1 Langmuir model (Fig. 4); soluble, other.

In general, Kd refers to a measure of binding affinity in units of concentration. A high value points to lower affinity. DMF5 TCR αD26Y/βL98W: the Kd in assay [1] turned out to be 24 nM.
Turning to DMF5 TCR αD26Y/αY50A/βL98W, in assay [2], the Kd turned out to be 556000 nM.
As for DMF5 TCR αD26Y, the figures for the Kd in assay [3] and in assay [4] were 4500 nM and 460 nM, respectively.
In turn, DMF5 TCR αD26Y/αY50W/βL98W showed a dissociation constant Kd in assay [5] of 660 nM.
Consider DMF5 TCR βL98W, for which, in assay [4], the dissociation constant (Kd) stood at 2900 nM.
Turning to DMF5 TCR αD26Y/αY50F/βL98W, in assay [5], the Kd was found to be 640 nM.
For DMF5 TCR αD26Y/αY50V/βL98W, the Kd in assay [5] came out at 7140 nM.
